Test results from the RNAGym collection of RNA variant scans (doi:10.1073/pnas.2313332121).

B1: TPR t1 (parent)
chain: GACCAAUCUGCCCUCAGAGCUCGAGAACAUCUUCGGAUGCAGAGGAGGCAGGCUUCGGUGGCGCGAUAGCGCCAACGUCCUCAACCUCCAAUGCAUCCCACCACAUGAUGAUGCCUGAAGAGCCUUGGUUUUUUG

Variants of: B1
Test: polymerase ribozyme fitness, log enrichment relative to wild type (log ratio); higher = more active; in vitro selection for triplet polymerase activity
Procedure, shortened: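 For each subunit of a heterodimeric triplet polymerase ribozyme, a mutant library was built by PCR and transcribed, then taken through a single in vitro selection round in triplicate. Selection involved annealing to a biotinylated primer, the partner subunit and triplets, incubation frozen at −7 °C, gel excision of extended constructs, capture on streptavidin beads and RT-PCR. Genotypes were retained after Illumina sequencing of inputs and outputs only with ≥10 input reads and ≥1 read in each output. Fitness is defined as the logarithm of a genotype's enrichment relative to wild-type enrichment, using inverse-variance-weighted averages across replicates, with the logarithm taken to base 2.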

Variant | polymerase ribozyme fitness (log ratio)
A26C G45C U87C | -6.66
A24G C62U C104A C115A G135C | -4.17
A27C C124A | -0.901
A27G C28A G52U | -5.13
A24G A46U C62G | -5.81
A26C C82A | -5.2
G23U C124A | -4.31
A24G A90U | -2.52
A26U C49U A66G A84C C124G | -4.9
C28A A46U U54G C73U C82G A90G C123U | -4.12
G25U G69U | -4.36
A27G C89A U92A C98A A111C | -6.08
A27C C49U | -4.08
A24G C62A | -2.63
A26U C62G C124A | -3.42
A27U C79G G127U | -4.93
A27U G61A C86U | -2.19
A27U C53U G77A | -3.79
A27C C76A | -5.92
A27U C85A C86A C101G | -5.15
A24G C72U C88A G93U | -5.29

Variant | polymerase ribozyme fitness (log ratio)
A24U G69U C88A C114A | -6.87
A27G G42U A75G | -3.6
A26G C123G C124U G135U | -1.25
G25U C34G G36C C97A U112G | -6.79
A24G C115A | -1.25
G23C A26G C124U | -5.18
A27U C76U | -3.39
A27U C88A | -4.4
C28A C89U U112A | -1.62
G25A C31G U32G C40U C72U U106C A108U C124A | -7.62
G25C C34G C70A C104G G110U U116G | -8.24
A27C C56G | -3.34
A27C C56A | -3.22
A27U A68U A90C G93A C101G G110U | -7.92
C28A G61U G120A | -3.5
A24G G77A C115U | -2.98
A26G G45A G48U | -3.98
A24G G69A | -4.71
A24G G69U | -0.509
A26U G57U | -4.04
G23U U112G C114U C124G U125C | -7.12

Variant | polymerase ribozyme fitness (log ratio)
A24G C102U | -3.7
A26U G71A | -3.13
A26U C49U C98U | -4.89
A27U G44A U129A | -6.51
A24U U32A G48C C70A A74U U81A A121G U125G | -7.22
A24G G113A | -3.26
A27G C115U | -4.58
A26G G44C | -2.38
A24G G47A | -2.63
A26U A74G C98U | -4.46
A26U G60A C97U G110U | -5.7
A27U C56G A91G U131A U133G | -5.19
A27U U30A G61U C72U A84C C98G A111U | -8.22
A26U G47U C64A C85U G107C A108G G110C | -6.9
G23A G77A | -6.34
A26U U32C C94A | -4.33
A24U C56U | -4.09
G25U G47U | -6.74
A26G G120U | -1.88
A24G A111G | -2.06
A27C U55G G57C A111U G122A | -5.04

Variant | polymerase ribozyme fitness (log ratio)
A26U G117A | -5.38
G25A G45U C88G A90G C99G C115A | -7.43
C28A G63A | -5.86
A24G C53U | -2.07
A27G G45C G63A C104A U131C | -6.14
A26U A50C C56A C124A | -2.3
A27U C97U U112A | -3.08
A27C C56A C76G | -3.81
A27U C104U | -3.5
A26G G45C G48U C88U | -5.02
A26G G45A | -2.64
A27G G135U | -2.21
A27U A119C G120A | -2.76
G25U C31G G42A A46U C70U G110U G128U | -6.32
A27G A83G C86U | -2.33
A27U C31G G69U C79G G120C U130G U132A | -6.29
A26G C70U C94G A103G G117C | -7.12
G25U C53A G69U G107A U116G C123U | -7.07
A27U G117U C123G | -4.27
A27U C62U A74G | -7.73
A26G U30A C104G C115A | -5.53
